How the values were obtained:
[1] = target: classic PRRSV N protein (porcine reproductive and respiratory syndrome virus (classic PRRSV)); assay: BLI; SA probe with immobilised N protein (10 μg/ml, immobilization height 2.2 nm), KPNA1 in solution (gradient 1.47–4.97 μM or 0.87–9.95 μM); 30°C, PBS + 0.2% BSA; 1:1 binding model; ForteBio Octet
[2] = target: HP-PRRSV N protein (porcine reproductive and respiratory syndrome virus (HP-PRRSV)); assay: as above
[3] = target: KPNB1; assay: BLI; APS probe with immobilised KPNB1 (10 μg/ml, to saturation), N protein in solution (gradient 0.61–2.07 μM or 4.17–8.89 μM); 30°C, PBS + 0.2% BSA; 1:1 binding model; ForteBio Octet

Substance	Kd [1] [µM]	koff [1] [s⁻¹]	kon [1] [M⁻¹ s⁻¹]	Kd [2] [µM]	koff [2] [s⁻¹]	kon [2] [M⁻¹ s⁻¹]	Kd [3] [µM]	koff [3] [s⁻¹]	kon [3] [M⁻¹ s⁻¹]
KPNA1 (receptor)	0.304	0.000619	2030	0.91	0.000446	490			
HP-PRRSV N protein (natural protein)							2.13	0.00737	3450
classic PRRSV N protein (natural protein)							0.293	0.00179	6110
